Legend:
human BVR = target: T1, human BVR (Homo sapiens, UniProt P53004); experiment: BVR autophosphorylation; assay type: biochemical; settings: 20 mM Zn acetate, pH 8.4; also with Mn^+2
T1 construct: made in house; host or cells: E. coli (pGEX 4T-2/hBVR)
T1 sequence (P53004 1-296 A154S/G155D/E160D): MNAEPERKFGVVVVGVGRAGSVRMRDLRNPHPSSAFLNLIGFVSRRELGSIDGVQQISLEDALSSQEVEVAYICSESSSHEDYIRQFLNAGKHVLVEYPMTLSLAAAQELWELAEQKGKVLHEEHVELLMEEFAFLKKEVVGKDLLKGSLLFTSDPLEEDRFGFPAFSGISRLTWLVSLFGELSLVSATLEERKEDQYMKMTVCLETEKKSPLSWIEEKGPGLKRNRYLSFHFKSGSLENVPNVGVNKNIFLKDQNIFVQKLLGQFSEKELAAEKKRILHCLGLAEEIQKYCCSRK
Description: In FIG. 9A, effect of tyrosine mutations of BVR on its autophosphorylation is shown. Human wtBVR and BVR with mutations in tyrosine were used in the experiment to determine autophosphorylation of BVR. The reactions were performed as described in the Examples. FIG. 9B is a graph showing that BVR tyrosine kinase activity was checked by incubating 5 μg purified BVR with 5 μg Raytide in 50 μl kinase buffer containing 10 μM labeled ATP for 2 h at 30° C. The aliquots of the reaction were transferred onto P81 Whatman filters and radioactivity due to phosphorylation was measured using a scintillation counter.
FIGS. 10A-B illustrate that autophosphorylation of BVR is an Mn^+2 dependant kinase reaction. […] The effects of different metal ions (30 mM MnCl2, 20 mM MgCl2, 20 mM CaCl2, 20 mM Zn acetate) and their combinations were analyzed as indicated in the text. […] Phosphorylation of wtBVR by IRK in the presence of tyrosine kinase inhibitor genestein (200 μM); DMSO was used as the vehicle for genestein and was included in the control reaction mixture. The reactions were carried out in HEPES buffer (pH 8.0) in the presence of 20 mM MgCl2 as described in the Examples.
(§1) To detect autophosphorylation of BVR, GST-hBVR of wild type (wt) and mutant variants were incubated in 50 mM HEPES buffer (pH 8.4) in the presence of 30 mM MnCl2 and 1 mM DTT for 2 h at 30° C. The reaction was started with the addition of 10 μM ATP labeled with 10 μCi [γ-^32P]-ATP and was stopped with the addition of Laemmli sample buffer. Samples were boiled for 3 min and applied to a 8% SDS-PAGE gels, transferred to a PVDF membrane, and then visualized by autoradiography. […] The reaction was started with the addition of ATP and terminated by adding 120 μl 10% H3PO4. 100 μl aliquots were directly transferred to P81 Whatman filters which were subsequently washed extensively in 0.75% phosphoric acid at room temperature. Finally, the filters were submerged in acetone for 5 min, dried, and retained counts were measured using a Beckman LS 6500 liquid scintillation counter (Beckman Coulter, Fullerton, Calif.).

BVR [1] = experiment: BVR reductase activity in insulin-treated 293A cells; assay type: cell-based, human; settings: insulin 50 nM, measured 1 h after treatment
Description: FIG. 12A-D illustrates that “knock-down” BVR and Y^198 detection increased glucose uptake into 293A cells upon insulin induction. As shown in the graph of FIG. 12A, insulin treatment increases BVR activity. 293A cells were treated with insulin (50 nM) and subsequently used at indicated time points for BVR activity measurement. […] Purified BVR was phosphorylated by IRK for the indicated periods. Reactions were terminated by diluting with PBS and freezing at −20° C. BVR activity was determined as in FIG. 12A, and normalized to that of the control (43.8 μmol per min per mg). […] 293A cells were incubated with insulin and after 8 min or 30 min, subjected to immunoprecipitation using anti-human BVR antibodies. The phosphorylated BVR was visualized by immunoblotting using anti-tyrosine antibodies. ECL system was used for visualization of phosphorylated BVR. […]
293A cells treated with insulin were lysed in buffer containing a protease inhibitor cocktail and phosphatase inhibitors (10 mM NaF, 1 mM NaVO4). BVR activity was measured at pH 6.7 using NADH as the cofactor as described previously (Huang et al., J. Biol. Chem. 264:7844-9 (1989), which is hereby incorporated by reference in its entirety). The rate of conversion of biliverdin to bilirubin was determined as the increase in absorbance at 450 nm at 25° C. Specific activity is expressed as μmol of bilirubin/min/mg of protein.

BVR [2] = experiment: BVR tyrosine phosphorylation in insulin-treated 293A cells (immunoprecipitation/immunoblot); assay type: cell-based, human; settings: within 8 min after insulin treatment
Description: FIG. 12A-D illustrates that “knock-down” BVR and Y^198 detection increased glucose uptake into 293A cells upon insulin induction. As shown in the graph of FIG. 12A, insulin treatment increases BVR activity. 293A cells were treated with insulin (50 nM) and subsequently used at indicated time points for BVR activity measurement. […] Purified BVR was phosphorylated by IRK for the indicated periods. Reactions were terminated by diluting with PBS and freezing at −20° C. BVR activity was determined as in FIG. 12A, and normalized to that of the control (43.8 μmol per min per mg). […] 293A cells were incubated with insulin and after 8 min or 30 min, subjected to immunoprecipitation using anti-human BVR antibodies. The phosphorylated BVR was visualized by immunoblotting using anti-tyrosine antibodies. ECL system was used for visualization of phosphorylated BVR. In FIG. 12D, the effect of insulin treatment on glucose uptake cells infected with siBVR or Y^198 mutant BVR were treated with insulin for 15 min and subsequently incubated in 1 ml PBS containing 5 mM glucose and 1 μCi/ml-2-deoxy-1 [^3H] glucose (2DG) for 15 min. Cells were washed with cold PBS and lysed by addition of 1% (w/v) SDS to each well. […]
293A Cells were plated in 10 cm plates and transfected with appropriate plasmids. […] Protein concentration was determined by Bradford assay (Bio-Rad, Hercules, Calif.). […]

IRS-1 = experiment: BVR kinase activity with IRS-1 as substrate (wt vs G17 mutant); assay type: biochemical; settings: mutation in ATP binding domain compared with wtBVR
Description: BVR containing mutations on threonine 202 and serine residues, as indicated in the figure, were subjected to autophosphorylation analysis as described in the text. […] 5 μg purified BVR was incubated with 5 μg IRS-1 or HO-1 or HO-2, used as a control for kinase activity, and MBP which was used as the substrate control in 50 μl kinase buffer as described in the Examples. […] Mutant G^17 was compared with wtBVR as a kinase for IRS.
as §1

[3] = target: T2, Peptide 1, mutant IRS-1 peptide (Lys-Lys-His-Ala-Asp-Asp-Gly-Ala-Met-Pro-Met-Ser-Pro-Gly-Val-Ala)
T2 chain: KKHADDGAMPMSPGVA

[4] = target: T3, Peptide 2, IRS-1 peptide (Arg-Thr-Glu-Ser307-Ile-Thr-Ala-Thr-Ser312-Pro-Ala-Ser315-Met-Val-Gly-Gly-Lys-Pro)
T3 chain: RTESITATSPASMVGGKP

[5] = target: insulin receptor substrate-1 (IRS-1) peptide Y^608

CC(=O)[O-].CC(=O)[O-].[Zn+2] [Zn^+2, Zn acetate, reference compound]
BVR autophosphorylation in presence of metal ion (human BVR): inhibitory to BVR autophosphorylation

insulin: Human insulin purchased from Sigma-Aldrich
increase in BVR reductase activity (BVR [1]): 2 fold | BVR tyrosine phosphorylation (BVR [2]): dramatic increase in phosphorylation

B1: G^17: human BVR point mutant GVGRA to GVARA in ATP binding domain (protein, UniProt P53004 3-296, looked up, variant G17A)
Biliverdin reductase A: AEPERKFGVVVVGVARAGSVRMRDLRNPHPSSAFLNLIGFVSRRELGSIDGVQQISLEDALSSQEVEVAYICSESSSHEDYIRQFLNAGKHVLVEYPMTLSLAAAQELWELAEQKGKVLHEEHVELLMEEFAFLKKEVVGKDLLKGSLLFTAGPLEEERFGFPAFSGISRLTWLVSLFGELSLVSATLEERKEDQYMKMTVCLETEKKSPLSWIEEKGPGLKRNRYLSFHFKSGSLENVPNVGVNKNIFLKDQNIFVQKLLGQFSEKELAAEKKRILHCLGLAEEIQKYCCSRK
IRS phosphorylation by BVR (IRS-1): for the most part, prevented IRS phosphorylation by BVR

B2: GST-hBVR fusion protein, wild type (human biliverdin reductase fused to glutathione-S-transferase) (protein)
chain: MNAEPERKFGVVVVGVGRAGSVRMRDLRNPHPSSAFLNLIGFVSRRELGSIDGVQQISLEDALSSQEVEVAYICSESSSHEDYIRQFLNAGKHVLVEYPMTLSLAAAQELWELAEQKGKVLHEEHVELLMEEFAFLKKEVVGKDLLKGSLLFTSDPLEEDRFGFPAFSGISRLTWLVSLFGELSLVSATLEERKEDQYMKMTVCLETEKKSPLSWIEEKGPGLKRNRYLSFHFKSGSLENVPNVGVNKNIFLKDQNIFVQKLLGQFSEKELAAEKKRILHCLGLAEEIQKYCCSRK
phosphorylation of IRS-1 peptide by BVR (32P, cpm) [3]: both the mutated and unmutated peptides were phosphorylated to about the same extent (1049±78 cpm and 1081±183 cpm respectively) | phosphorylation of IRS-1 peptide by BVR (32P, cpm) [4]: this peptide is also a suitable substrate for BVR (1198±230 cpm) | phosphorylation of BVR by IRK in the presence of increasing molar ratio of IRS/BVR [5]: in the presence of increasing amounts of IRS, there was an increase in phosphorylation of BVR by IR up to equimolar ratio of IRS/BVR | phosphorylation of IRS-1 peptide by BVR (32P, cpm) [5]: both the mutated and unmutated peptides were phosphorylated to about the same extent (1049±78 cpm and 1081±183 cpm respectively)

Source: patent publication US20130344053A1, “Methods of Modifying Insulin Signaling Using Biliverdin Reductase (BVR) and BVR Derived Peptides” (University of Rochester, priority 2010, published 2013)
